Assay [1] has as its target somatostatin receptors on AR42J cells (rat). Nature of the assay: apparent IC50; competition with ^111In-DTPA-octreotide on AR42J cells, 3 h at RT.
In assay [2] the target is gastrin-releasing peptide receptor on PC-3 cells (UniProt P30550). Nature of the assay: competition with ^125I-BBN on PC-3 cells, repeat experiment (250 to 2 nM competitor).
gastrin-releasing peptide receptor on PC-3 cells, sequence (P30550 whole entry): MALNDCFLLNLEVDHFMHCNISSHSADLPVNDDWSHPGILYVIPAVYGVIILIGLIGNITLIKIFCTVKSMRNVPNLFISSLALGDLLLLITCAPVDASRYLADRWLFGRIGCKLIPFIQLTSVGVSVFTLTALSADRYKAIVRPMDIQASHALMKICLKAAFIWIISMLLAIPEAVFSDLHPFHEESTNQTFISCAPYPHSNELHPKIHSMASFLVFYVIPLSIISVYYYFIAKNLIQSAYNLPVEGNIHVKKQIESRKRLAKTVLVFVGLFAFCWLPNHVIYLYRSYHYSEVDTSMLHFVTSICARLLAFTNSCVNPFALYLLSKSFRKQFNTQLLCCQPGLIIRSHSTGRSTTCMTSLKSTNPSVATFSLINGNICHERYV

somatostatin receptors on AR42J cells (rat), sequence (P30680 whole entry): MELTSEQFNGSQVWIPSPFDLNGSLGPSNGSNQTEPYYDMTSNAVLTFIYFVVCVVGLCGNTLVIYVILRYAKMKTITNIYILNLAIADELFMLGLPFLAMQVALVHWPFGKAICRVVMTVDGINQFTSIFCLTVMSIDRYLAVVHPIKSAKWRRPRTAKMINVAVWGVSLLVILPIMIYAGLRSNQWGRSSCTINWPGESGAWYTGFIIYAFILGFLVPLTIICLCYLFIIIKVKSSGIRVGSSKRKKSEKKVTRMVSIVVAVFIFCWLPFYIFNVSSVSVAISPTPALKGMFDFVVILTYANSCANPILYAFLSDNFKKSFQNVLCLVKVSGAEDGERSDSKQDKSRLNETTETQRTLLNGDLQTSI

On to “^19F-IMP466 (Al^19F complex of IMP 466, NOTA-D-Phe-Cys-Phe-D-Trp-Lys-Thr-Cys-Throl) (peptide)”, for which the 50% inhibitory concentration (IC50) (as a rule, the point on the concentration scale where inhibition reaches its midpoint) in assay [1] came to 3.6 nM.
In the case of “^69Ga-IMP466 (gallium complex of IMP 466) (peptide)”, the half-inhibitory concentration (IC50) in assay [1] was found to be 13 nM.
In the case of ^115In-DTPA-octreotide (peptide), the IC50 in assay [1] was 6.3 nM.
commercially available BBN peptide showed an IC50 in assay [2] of 24.4 nM.
